From article PMC2148441

Molecular target: human phosphopantetheinyl transferase (human) (UniProt Q9NRN7)

ACP domain of human fatty acid synthase with the hydrophobic patch Leu2157, Met2158, Val2160 replaced by alanine (from UniProt P49327 2117-2205) (domain or fragment)
Km for ACP in the PPT reaction after replacement of the hydrophobic patch by alanines (data not shown): > 1000 fold
